Test results reported in the nanobody polyreactivity screen of Harvey et al. (2022).

Experiment: yeast display, Sf9 membrane polyspecificity reagent, FACS + sequencing; frameworks hold sequencing errors
Summary of the method: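 Genes from sorted yeast were amplified by colony PCR, read by MiSeq 2 × 250 sequencing and filtered on CDR length. These cells carried a synthetic nanobody library in Saccharomyces cerevisiae BJ5465 and were sorted by FACS into low and high (top ~1%) gates on anti-HA and streptavidin fluorescence. Polyreactivity is labelled according to the gate of origin.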

Sequence	polyreactivity (PSR sort gate)
QVQLVESGGGLVQAGGSLRLSCAASGSTFWFYTMGWYRQAPGKERELVATITSGGSTNYADSVKGRFTISRDNAKNTVYLQMNSLKPEDTAVYYCAASSVLTNHDYWGQGTQVTVSS	low polyreactivity
QVQLVESGGGLVQAGGSLRLSCAASGSTLIANAMGWYRQAPGKERELVAGITYRGGDITTYADSVKGRFTISRDTAKNTVYLQMNSLKPEDTAVYYCAARVVWPTWARGGYWGQGTQVTVSS	low polyreactivity
QVQLVESGGGLVQAGGSLRLSCAASGLTFRIYAMGWYRQAPGKERQLVAAISYRGGSTYYADSVKGRFTISRDNAKNTVYLQMNSLKPEDTAVYYCAAGFVLNGIRYDYWGQGTQVTVSS	high polyreactivity
QVQLVESGGGLVLAGGSLRLSCAASGSIFNVYAMGWYRQAPGKERELVASITRRRTNYADSVKGRFTISRDNAKNTVYLQMNSLKPEDTAVYYCAATTYVRQYATYDYWGQGTQVTVSS	high polyreactivity
QVQLVESGGGLVQAGGRLRLSCAASGTTFVYYAMGWYRQAPGKERELVAAITASGGRTYYADSVKGRFTISRDNSKNTVYLEMNSLKPDDTAVYYCNARARKSIRVGGYNYWGQGSQVTVSS	high polyreactivity
QVQLVESGGGLVQAGGSLRLSCAASGSTFYYYAMGWYRQAPGKEREFVASISSRGTSTYYADSVKGRFTISRDNAKNTVYLQMNRLKPEDTAVYYCAARGWGPTRAYDYWGQGTQVTVSS	high polyreactivity
QVQLVESGGGLVQAGGSLRLSCAASGITFRYNAMGWYRQAPGKERELVAAISYSGGSTYYADSVKGRFTISRDNAKNTVYLQMNSLKPEDTAVYYCAARIYSYPRGQYDYWGQGTQVTVSS	low polyreactivity
QVQLVESGGGLVQAGGSLRLSCAASGRTFGYYVMGWYRQAPGKERELVAAITYTGGSTYYADSVKGRFTISRDNAKNTVYLQMNSLKPEDTAVYYCATSTYKPTYGYDYWGKGTQVTVSS	low polyreactivity
QVQLVESGGGLVQAGGSLRLSCAASGLTFSAYAMGWYRQAPGKERELVAAITTGGGRTYYADSVKGRFTISRDNAKNTVYLQMNSLKPEDTAVYYCNTLRAYWTYHFYGAVRDGYDYWGQGTKVTVSS	low polyreactivity
QVQLVESVGGLVQAGGSLRLSCAASGRTFGVYAMGWYRQAPGKERELVAAISRRAGNTYYADSVKGRFTISRDNAKNTVYLQMNSLKPEDTAVYYCAAYFSRQYGYWGLGTQVTVSS	high polyreactivity
QVQLVESGGGLVQAGGSLRLSCAASGFIFRTYAMGWYRQAPGTERELVATITGDGSTNYADSVKGRFTISRDNAKNTVYLQMNSLKPEDTAVYYCSRDDRLAGDYWGQGTQVTVSS	low polyreactivity
QVQLVESGGGLVQAGGSLRLSCAASGITFTVYAMGWYRQARGKERELVAAINSGSSTNYADSVKGRFTISRDNAKNTVFLQMNSLKPEDTAVYYCAASYRKLPDKKRYGYWGQGTQVTVSS	high polyreactivity
QVQLVESGGRLVKARGSLRISFADSVRTFIRNAMGWYRQAPGKERELVAAITSSGGSTYYADSVKGRFTISRDNAKITVYLQMNILKPEDTAVYYCAAVNSKRHRRYNYWGQGTQVTVSS	high polyreactivity
QVLLVESGGGLVQAGGSLRLSCAASGAIFRGYVMGWYSQAPGKERELVAAISYSGGATYYADSVKGRFTLSRDNAKNTVYVQMNSLKPEDTAVYYCAAYRYRYPYRLYDYWGQGTQGTVSS	high polyreactivity
QVQLVDSGGGLVQAGGSLRLSCAASGLTFYHYTMGWYRQAPGKERELVPAITKNGGSTYYADSVKGRFTISRDNAKNTVYLQMNSLKPEDSAVYYCAAYEFGLLRYYSGRSYYYWGQGTQVTVSS	high polyreactivity
QVQLVESGGGLVQAGGSLRLSCAASGMVWYRQAPGKERELVAAITSGDSTNYADSVKGRFTISRDNAKNTVYLQMNCLKPEDTSVYYCAADPDYLYAYFYWGQGTQVSVSS	low polyreactivity
QVQLVESGGGLVQAGGSLRLSCAASGLTLYRNAMGWYRQAPGKERELVATINFSGGSKYYADSVKGRFTISRDNAKNTVYLQMNSLKPEDTAVYFCNARGYWHYSPTKFDYWGQGTQVTVSS	low polyreactivity
QVQLVESGVGLLQAGGSLRLSCAAYGYTMGLYRQAPGKEREFVAAINQTGGSTSADSVKGRFTISRDNANNTVYLQLNSLKPEDTAVYYCAADISVYSDSHDVSINYRYDYWGLGTQVTVSS	low polyreactivity
QVQRVESGGGLVQAGGSLRLSCAASGRTFNHYAMGWYRAAPGKERELVAAISRSGGTTYYADSVKGRFTISRENAKNTVYLQMNSLKPEDTAVYYCAARWWYRYNYDFWGQGTQVTVSS	high polyreactivity
LVQLVESGGGLVQAGGSLRLSCAASGSIFRYYVMGWYRQAPGKDRELVAAISTGDRTNYADSVKGRFTISRDNPKKTVYLQMNSQKPEDTAVYYCNADYVVGWARLEFNYWGQGTQVTVSS	low polyreactivity
QVQLVESGGGLVQAGGSLRLSCAASGSIFGGYAMGWYRQAPGKERELVAAISSGGSTYYADSVKGRFTISRDNAKNTVYLQMNSLKPEDTAVYYCATSTYADRRNSYYYTRPRFGYWGQGTQVTVSS	high polyreactivity
QVQLVESGGGLVQAGGSLRLSCAASGFISFAYAMGWYRQAPGKERELVAGISRSGDSTYYADSVKGRFTISRDNAKNTVYLQMNSLKPEDTAVYYCAVVTYRSKAHSSRNGKYYYWGQGTQVTVSS	low polyreactivity

Sequence	polyreactivity (PSR sort gate)
QDQLVDSGGGIVQAGGILSLSCAASGRNIIYNAMGWYRQAPGKERELVAAINRSGVSTHYADSVKGRFTISRDNAKNTVYLQMTSLKPEDTAVYYCASTVYGARSYDYWGQGTQVTLSS	low polyreactivity
QVQLVESGGGLVQAGGSLRLSCAASGRIFSVYAMGWYRQAPGKERELVAAITRVGSTNYADSVKGRFTISRDNAKNTVYLQMNSLKPEDTAVYYCAAVARTVPSYSYNYWGQGTQVTVSS	high polyreactivity
QDQLVESAGGLVQAGGSLRLICAASGSTFALYAMGWYRQAAGTERELVAAISRSGGRTYYADSVKGRFTISRDNPKNTVYLQMNSLKPDDTAVYYCAADFSRPGGLDESWGQGTQVTVSS	high polyreactivity
QVQLVESGGGLVQAGGSLRLSCAASGSTLWVYAMGWYRQAPGKERELVAAITQSTGDTHYADSVKGRFTISRDNAKNTVYLQMNSLKPEDTAVYYCAADSYLSVYDPYGYWGQGTQVTVSS	low polyreactivity
QVQLVESGGGLVQAGGSLRLSCAASGRTFLRYAMGWYREAPGKERELVAAITYGGRTNFADSVKGRFTISRDNAKNTVYFQMNSLKPEDTAVYYCAADRTYYYGLRVDYWGQGTQVTVSS	high polyreactivity
QVQLVESGGGLVQAGGSLRLSCAASGRTFRSYAMGWYRQAPGKEREFVAAISRSGASTRYADSVKGRFTISRDNAKNTVYLQMNSLKPEDTAVYYCAAVWPDVRGYDYWGQGTQVTVSS	high polyreactivity
QVQLVESGGGLVQEGGSLRLICAASGSTFIYNAMGWYRQAPGKERELVASISTSGGSTYYADSVKGRFTISRDNAKNTVYFQMNSLIPEDTAVYYCAKRYFFKYGYWGQGTQVTVSS	high polyreactivity
QVQLVESGGGLVQAGGSLRLSCAASGRIFVYYAMGWYRPAPWKERELVAVITSGGITYYADSVKGRFTISRDNAKNTVYLQMNSLKPEDTAVYYCAARGHQYDPGSSGKKYYYWGQGTQVTVSS	high polyreactivity
QVQLVESGGGRVQAGGSLRLSCAASGSIFFIYAMGWDRQAPSKEREFVAAISYGGGSTYYADSVKGRFTISRDNAKNTVYLQMNSLKPEDTAVYYCNADVPKSLLLYYPWGYGYWGQGTQVNVSS	low polyreactivity
QVQLVESGGGLVQAGGRLRLSCAASVGTFRPYAMGWYRQAPGKERELVAAISYTGSTYYADSVKGRFTISRDNAKNTVYLQMNSLKPADTAVYYCAKDFWYPPRFDYWGHGTQVTVSS	low polyreactivity
QVQLVESGGGLVQAGGSLRLSCAASGRTFGIYAMGWYRPAPGKERELVATISWRGGSTYYADSVKGRFTISRDNAKNTVYLQMNSLKPEDTAVYYCAAGYYPYWGQGTQVTVSS	low polyreactivity
QVQLVEAGGGLVQAGGSLRLSCAASGLTFTVYAMGWYRQAPGKERELVAAITGSGTSTYYADSVKGRFTISRDNAKNTVYLQMNSLKPEDTAVYDCAADLYYYGFFWDFGDGFDYWGQGTQVTVSS	low polyreactivity
QVQLVESGGGLVQAGGSLRLSCAASVRIFAKYAMGWYRQAPGKERELVAAITSGGRTYYADSVKGRFTISRDNAKNTVYLPMNSLKPEDTAVYYCNAVPKSRDWQSYGSWGQGTQVTVSS	high polyreactivity
QVQLVESGGGLVQAGGSLRLSCAASGFTFYFYAMGWYRQAPGKETELVAGISRGGSTTYADSVTGRFTISRDNAKNTVYLQRNSLKPHDTAVYYCAVGYDIVRYSYSPFYRYDYWGQGTQVTVSS	low polyreactivity
QVQLVESGGGLVQAGGSLRLSCAASGSTFWANALGWYRQAPGKERELVAGITWNAGSTYYADSVKGRFTISRDNAKNTVYLQMNSLKPEDTGVYYCAAYYHFQGWGPGYNSWGQGTQVTVSS	low polyreactivity
QVQLVESGGGLVQAGGSLRLSCAASGRTFDDNAMGWYRQAPGKERELVAAISSTGSTNYADSVKGRFTISRDNAKNTVYLQMNSLKPEDTAVYYCNTDRGHERAYYYWGQGTQVTVSS	low polyreactivity
QVQLVESGGGLVQAGGRLRLSCAAAGSTFDGNAMGWYRQAPGKERELVADIDSIGGSTYYADSVKGRFTISRDNAKNTVYLQMNSLKPEDTAVYYCADRRFDTALVLYDYWGQGTQVTVSS	low polyreactivity
QVQLVESGGGLVQAGGRLRLSCAASGSTFYRYAMGMYRPAPGKERELVAAINRSGVTTYYADSVKGRFTISRDNAKNTVYLQMNSLKPEDTAVYYCAAVLGRGLDYYYLGQGTQVTVSS	high polyreactivity
QVQLVESGGCLVQAGGSLRLSCASSGRTFSWNAMGCYRQAPGKEREFVAAISNSGGSTYYADSVNGRFTISRDNAKNTVYLQMNSLKPEDTAVYYCAVYRYYGFSLWYDYWGQCTQVTVSS	low polyreactivity
QVQLVESGGGVVQAGGSLRLSCAASGRTFPGYAMGWYRQAAGKERELVAAITRGSTNYADSVKGRFTISRDNAKNTVYKQMNSLKPEATAVYYCAADFQYYFFWEEDYWGHGTQVTVSS	low polyreactivity
QVQLVESVGGLVQAGGSLRLSCSASGSIFDYYAMGWYRQAPGKQRELVAAITSGGSTYYADSVKGRFTISRDNAKNTVYLQMNSLNPEDTAVYYCNATYYYWLSYDYWGQGTQVSVSS	low polyreactivity
